Substrate in the data set: NCCNCCNCCN
Nature of the data set: not read.

B1: Thialysine N-epsilon-acetyltransferase (Homo sapiens) (protein)
chain: MASVRIREAKEGDCGDILRLIRELAEFEKLSDQVKISEEALRADGFGDNPFYHCLVAEILPAPGKLLGPCVVGYGIYYFIYSTWKGRTIYLEDIYVMPEYRGQGIGSKIIKKVAEVALDKGCSQFRLAVLDWNQRAMDLYKALGAQDLTEAEGWHFFCFQGEATRKLAGK
The Km is the concentration of substrate that gives half-maximal velocity. Usually Vmax stands for the top rate of the reaction or transport when substrate is in excess. Regarding B1, the Km was found to be 2500 µM and the Vmax was determined as 3.96 µmol/min/mg.

The values are drawn from ChEMBL document CHEMBL3526099, “Metabolism of triethylenetetramine and 1,12-diamino-3,6,9-triazadodecane by the spermidine/spermine-N(1)-acetyltransferase and thialysine acetyltransferase” (Drug Metab Dispos, 2013).
